Reference: patent publication US20160222058A1

Molecular target: Angiotensin converting enzyme (ACE)
Assay: cell-based or functional assay

Substance	IC50 (µg/ml), in vitro ACE inhibitory activity [µg/mL]
Ovotransferrin hydrolysate prepared by thermolysin and pepsin in combination, without sonication or reducing agent treatment	198
Ovotransferrin hydrolysate prepared by thermolysin, without reducing agent treatment	215
Ovotransferrin hydrolysate prepared by pepsin, without reducing agent treatment	320
Ovotransferrin hydrolysate (thermolysin then pepsin) of ovotransferrin treated by sonication prior to hydrolysis	9.2

More lines, now with the values ahead:

IC50 (µg/ml), in vitro ACE inhibitory activity [µg/mL]	Substance
45.6	Ovotransferrin hydrolysate (thermolysin then pepsin) of ovotransferrin treated with beta-mercaptoethanol prior to hydrolysis
10.7	Ovotransferrin hydrolysate (thermolysin then pepsin) of ovotransferrin treated with dithiothreitol prior to hydrolysis
